Substitutions are numbered along the chain they refer to.
B1: BHV-1 UL49.5Δ30-32 CT-null (other)
chain: DPLLDAMGAMDFWSAGCYARGVPLSEPPQALVVFYVALTAVMVAVALYAYGLCF
B2: BHV-1 UL49.5Δ30-32 (other)
chain: DPLLDAMGAMDFWSAGCYARGVPLSEPPQALVVFYVALTAVMVAVALYAYGLCFRLMGASGPNKKESRGRG
B3: BHV-1 wt UL49.5 (glycoprotein N) (other)
chain: DPLLDAMRREGAMDFWSAGCYARGVPLSEPPQALVVFYVALTAVMVAVALYAYGLCFRLMGASGPNKKESRGRG
B4: BHV-1 UL49.5 30AAA32 (other)
chain: B3 chain with R8A, R9A, E10A
B5: BHV-1 UL49.5 30AAA32 CT-null (other)
chain: DPLLDAMAAAGAMDFWSAGCYARGVPLSEPPQALVVFYVALTAVMVAVALYAYGLCF
B6: BHV-1 UL49.5 CT-null (other)
chain: B5 chain with A8R, A9R, A10E

molecular target: bovine TAP1 (bovine); test: cell-based or functional assay

**Q.** B1 was tested. Which “MHC-I surface expression on infected MDBK cells (FACS)” value (“MHC-I surface expression … (FACS)” for short) did it give?
**A.** The value was 88.6%.

**Q.** What about the “MHC-I surface expression relative to BHV-1 wt-infected MDBK cells” value of the same binder?
**A.** Its value is 2.5 fold.

**Q.** And the “inhibition of TAP-mediated peptide transport in infected MDBK cells at 8 hpi (FITC peptide, FACS)” value (from here on “inhibition”)?
**A.** Its value is 7%.

**Q.** And the “peptide transport at 8 hpi relative to BHV-1 wt-infected MDBK cells” value?
**A.** The value was roughly 6 fold.

**Q.** For B2, which “MHC-I surface expression … (FACS)” value is on record?
**A.** Its value is 74.3%.

**Q.** And the “MHC-I surface expression relative to BHV-1 wt-infected MDBK cells” value?
**A.** Its value is 2 fold.

**Q.** And the “inhibition” value?
**A.** Its value is 23%.

**Q.** And the “peptide transport at 8 hpi relative to BHV-1 wt-infected MDBK cells” value?
**A.** Its value is 4 fold.

**Q.** How did the “MHC-I surface expression … (FACS)” value turn out when B3 was run?
**A.** Its value is 36.2%.

**Q.** And the “inhibition” value?
**A.** The value was 84%.

**Q.** Which results are given for B4?
**A.** MHC-I surface expression on infected MDBK cells (FACS): 75%; MHC-I surface expression relative to BHV-1 wt-infected MDBK cells: 2 fold; inhibition of TAP-mediated peptide transport in infected MDBK cells at 8 hpi (FITC peptide, FACS): 27%; peptide transport at 8 hpi relative to BHV-1 wt-infected MDBK cells: 4 fold

**Q.** Which results are given for B5?
**A.** MHC-I surface expression on infected MDBK cells (FACS): 89.1%; MHC-I surface expression relative to BHV-1 wt-infected MDBK cells: 2.5 fold; inhibition of TAP-mediated peptide transport in infected MDBK cells at 8 hpi (FITC peptide, FACS): 10%; peptide transport at 8 hpi relative to BHV-1 wt-infected MDBK cells: ~6 fold

**Q.** Which “MHC-I surface expression … (FACS)” value does the source give for B6 here?
**A.** The value was 49.6%.

**Q.** And the “MHC-I surface expression relative to BHV-1 wt-infected MDBK cells” value?
**A.** The value was 1.3 fold.

**Q.** And the “inhibition” value?
**A.** Its value is 63%.

**Q.** And the “peptide transport at 8 hpi relative to BHV-1 wt-infected MDBK cells” value?
**A.** Its value is 2.5 fold.

Reference: patent US20130034585A1 (BOARD OF SUPERVISORS OF LOUISIANA STATE UNIVERSITY AND …, published 2013)
